The values below come from US20260144882A1, “ANTI-NECTIN-4 ANTIBODY DRUG CONJUGATE AND USE THEREOF” (Bio-Thera Solutions, Ltd., priority 2022, published 2026).

The chains are these.
B1: 1G8-1G3: VH SEQ ID NO: 98 (antibody, V domains shown)
VH: EVQLVESGGGLVQPGGSLRLSCAASGFNFGTYAMSWVRQAPGKGLEWVSRISGISAGTNYADSVKGRFTISRDNSKNTLYLQMNSLRAEDTAVYYCARQTEDRSYGYDLDYWGQGTLVTVSS
B2: 1G8-2B3: VH SEQ ID NO: 109 (antibody, V domains shown)
VH: EVQLVESGGGLVQPGGSLRLSCAASGYNFTTSAMSWVRQAPGKGLEWVSRIYQDSSTTDYADSVKGRFTISRDNSKNTLYLQMNSLRAEDTAVYYCARQTEDRSYGYDLDYWGQGTLVTVSS
B3: 1G8-1E10: VH SEQ ID NO: 90 (antibody, V domains shown)
VH: EVQLVESGGGLVQPGGSLRLSCAASGDSFSTYAMSWVRQAPGKGLEWVSRISGSGDGKDYADSVKGRFTISRDNSKNTLYLQMNSLRAEDTAVYYCARQTEDRSYGYDLDYWGQGTLVTVSS

This assay deals with T1, hNectin-4-His (human Nectin-4 extracellular antigen) (Homo sapiens, UniProt Q96NY8).
T1 construct: made in house
T1 sequence (Q96NY8 with tags, fused parts or gaps): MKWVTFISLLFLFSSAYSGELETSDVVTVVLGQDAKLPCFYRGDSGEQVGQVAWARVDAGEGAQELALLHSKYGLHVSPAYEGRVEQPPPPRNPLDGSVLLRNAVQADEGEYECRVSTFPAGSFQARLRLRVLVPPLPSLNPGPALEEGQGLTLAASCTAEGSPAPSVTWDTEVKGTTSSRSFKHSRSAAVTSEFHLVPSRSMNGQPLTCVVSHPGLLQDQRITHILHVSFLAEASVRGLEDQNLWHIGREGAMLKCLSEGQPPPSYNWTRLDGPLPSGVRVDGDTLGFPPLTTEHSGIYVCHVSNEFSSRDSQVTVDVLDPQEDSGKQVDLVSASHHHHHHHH
Kind of assay: SPR (BIAcore) affinity assay. The note with it: Table 13. The assay is classed as binding. The procedure:
In this study, the affinity of the antibodies for the human Nectin-4 extracellular antigen was detected by surface plasmon resonance (SPR) technique (BIAcore: GE Healthcare, T200).
Capture was performed using a Protein A chip (Cat #29127556, GE Healthcare), and 5 µg/mL antibody dilutions (in HBS-EP+(10×): GE Healthcare, Cat #BR-1006-69, with a working concentration of 1×) were directed through the experimental flow channels (Fc2 and Fc4) at a flow rate of 10 μL/min for 10 s; then, the flow rate was adjusted to 30 μL/min, the hNectin-4-His dilutions at different concentrations (0 nM, 1.23 nM, 3.7 nM, 11.1 nM, 33.3 nM, and 100 nM) were sequentially added, and simultaneously directed through the surfaces of the experimental flow channels (Fc2 and Fc4) and reference flow channels (Fc1 and Fc3) with an association time of 120 s and a dissociation time of 180 s, and finally, the chip was regenerated in Glycine 1.5.
(Surface plasmon resonance follows binding to a sensor surface in real time, without labels.)
Take B1: the “ka” value is 471000 M⁻¹ s⁻¹ and the “kd” value came out at 0.00141 s⁻¹.

B2: the “ka” value is 742000 M⁻¹ s⁻¹ and the “kd” value is 0.00147 s⁻¹.

As for B3, the “ka” value is 665000 M⁻¹ s⁻¹ and the “kd” value amounted to 0.00087 s⁻¹.
